According to doi:10.1101/2021.08.05.455261:
Read-outs that look alike come from different tables or passages of the source.

Tests used:
Assay in all cases: SEC
[1] = molecular target: C-terminal domain homolog (CTDH) from Anabaena variabilis (Anabaena variabilis)
[2] = molecular target: C-terminal domain homolog (CTDH) from Anabaena variabilis (Anabaena variabilis); remark: listed apart in the source
[3] = molecular target: C-terminal domain homolog (CTDH) from Anabaena variabilis (Anabaena variabilis); remark: listed apart in the source
[4] = molecular target: C-terminal domain homolog (CTDH) from Anabaena variabilis (Anabaena variabilis); remark: listed apart in the source

Measured: stoichiometry N

C-terminal domain homolog (CTDH) from Anabaena variabilis (natural protein)
2: all assays above
